According to paper doi:10.1101/2025.01.14.632876v1:

Substrate: NC(=O)c1ccc[n+]([C@@H]2O[C@H](COP(=O)(O)OP(=O)(O)OC[C@H]3O[C@@H](n4cnc5c(N)ncnc54)[C@H](O)[C@@H]3O)[C@@H](O)[C@H]2O)c1
Test: purified protein
Conditions: G6PDH activity, co-substrate G6P, 2 M KCl, 100 mM Tris-HCl pH 8.5

B1: HvG6PDH (Haloferax volcanii DS2) (protein)
chain: MDQPVLLTGAGGRVGQAILGHIGDAYDWRLLDREPLSDEKIPDSVDSTEVYVADVTDETAVRNAMDGVHAVIHLAGDPRPEAPWDSVLRNNIDGTQQMFDAAVDVGVEKFAFASSNHAVGAYETTDRTPDMYRPHHEFRLDGTELPRPSNLYGVSKAAGETLGRYYHDHHDISVVNVRIGNLTQHHPPKEYERGQAMWLSYRDCGHLFECCIEADYDYEIVYGISDNDRKYYSIDRARAVLGYDPQDNSAEFTFEGEPLDEA
Km: 198 ± 6 µM
kcat: 42.5 ± 0.1 s⁻¹
